Data: the Human Domainome abundance scans (Beltran et al. 2025)

B1: POU domain, class 3, transcription factor 1, residues 247 to 324; numbered along this chain, Q03052 (parent)
chain: EDAPSSDDLEQFAKQFKQRRIKLGFTQADVGLALGTLYGNVFSQTTICRFEALQLSFKNMCKLKPLLNKWLEETDSSS

Variants of: B1
Test: abundance fitness (aPCA) (normalised: wild type 0, dead -1); higher = more abundant; growth selection in yeast, the domain comes from the species named
Details: Homo sapiens

Abundance fitness, by site and new letter:
G24: W -0.806, V -1.01, K -0.423, N -0.587, D -0.7, I -1.02, M -0.78, R -0.75, A -0.739, L -0.726, T -0.805, Q -0.796, P -0.73, S -0.454
L32: H 0.033, G -0.372, C 0.095, E -0.017, F 0.186, D 0.182
L23: Q -0.31, C -0.629, T -0.647, F -0.219, R -0.313, I -1, G -0.56, V -0.686, M 0.124, S -0.59, D -0.301, A -0.226, W -0.224, E -0.47
A28: N -0.285, H -0.24, G -0.083, M -0.149, L -0.405, W -0.371, Y -0.213, P -0.758, C -0.239, K -0.111, R 0.069, Q -0.225, T -0.037, E -0.008, D -0.317, I -0.608, S -0.237, V -0.495
F16: G -0.572, L -0.633, E -0.585, N -0.713, I -0.532, K -0.61, M -0.612, D -0.83, T -0.429, R -0.621, W -0.736, Q -0.541, A -0.779, V -0.515, P -0.789
T26: D -0.86, W -0.998, P -0.919, M -0.559, I -0.951, V -0.724, G -0.456, N -0.436, S -0.093, L -0.699, E -0.298, H -0.15, A -0.497, K -0.746, Q -0.192
F25: N -0.531, I -0.404, Y 0.112, P -0.965, G -0.859, W -0.536, V -0.31, Q -0.511, C -0.217, R -0.342, D -0.811, S -0.505, M -0.276, L -0.12, K -0.095
A13: D -1.07, T -0.691, W -0.903, E -0.416, C 0.113, S -0.53, G -0.828, M -0.383, K -0.402, F -0.972, I -0.43, V -0.047, Y -0.505
K17: S -0.354, I 0.048, H -0.066, T -0.001, C -0.868, W -0.879, E -0.8, R 0.007, M -0.269, P -0.667, Q 0.035, D -0.893, A -0.178
Q18: S -0.027, L -0.25, E 0.028, C -0.428, T -0.034, F -0.304, P -1.16, Y -0.824, R -0.204, H 0.031, K 0.138, M -0.472, W -0.245, A 0.074, D -0.259, V -0.316, N -0.276
G31: Q -0.337, E -0.18, S 0.04, R -0.46, M -0.494, V -0.262, P -0.983, K -0.702, H -0.228, A 0.161, N -0.437, L -0.509, T -0.085, W -0.444, D -0.417, Y -0.957
D29: N -0.729, C -0.592, Q 0.184, S -0.28, G -0.241, V -0.679, F -0.835, R -0.316, W -0.631, M -0.654, T -0.512, L -0.547, P -0.614, A -0.134, K -0.057, H -0.213
V30: P -0.787, W -0.386, F -0.485, H -0.303, A -0.411, G -0.957, N -0.281, L -0.175, K -0.425, R -0.975, M -0.65, C -0.319, Q -0.759, T -0.807, I -0.055, E -0.601
Q15: E -0.092, L -0.184, D 0, G -0.18, K -0.118, H -0.075, T -0.112, A -0.067, C -0.342, M 0.124, V -0.078, P -0.745, R -0.047, F -0.122, N 0.301, S -0.014, I 0.2, W -0.288
I21: F -0.827, C -0.521, A -0.391, M -0.236, H -0.64, Q -0.178, K -0.349, D -0.527, G -0.689, Y 0.147, P -1.18, L -0.184, E 0.005, R -0.338, W -0.544
F12: N -0.192, A -0.391, Q -0.844, I -0.553, S -0.544, G -1.11, W -0.362, C -0.881, E -0.738, V -0.55, P -0.492, T -1.16, R -0.62, L -0.547
K22: F -0.32, T -0.106, W -0.537, G -0.349, D 0.038, R -0.035, Y 0.071, C -0.347, L -0.128, P -1.04, V -0.428, N 0.126, A 0.058, H 0.068, I -0.743
Q11: P -0.299, V -0.032, R -0.149, A -0.087, K 0.057, M -0.213, F -0.093, W -0.707, C -0.266, D 0.07, I 0.134, T 0.036, N 0.001, S -0.002, G -0.272, H 0.121, Y -0.269, E -0.002
R19: K 0.259, P -0.79, H -0.456, N -0.071, W -0.484, M 0.023, L -0.613, G -0.495, V -0.586, I -0.212, Q -0.218, T -0.04, S -0.232, E -0.36
K14: P -0.573, W -0.419, F -0.386, E -0.053, L -0.159, T -0.03, S -0.492, N -0.211, R -0.195, I -0.19, Q 0.048, C -0.27, Y -0.233, D -0.78, H 0.468
R20: F -0.353, Q -0.733, H -0.508, D -0.645, I -0.971, P -0.744, V -0.636, E -0.845, A -0.653, L -0.637, K -1.11, G -0.896, W -0.973, T -0.815, M -0.915, S -0.813
E10: T -0.121, W -0.107, S -0.433, Y -0.244
Q27: P -0.053, A -0.051, E 0.03, V -0.171, I 0.045, R -0.49, K -0.257, D -0.836, L -0.356, W -0.209, G -0.595, S -0.369, C 0.069, F -0.325, H 0.217, M -0.288, T -0.062
